Results: article PMC4449531, “Identification and characterization of a novel group of legume-specific, Golgi apparatus-localized WRKY and Exo70 proteins from soybean”
Where a chain is given by its changes, count along the chain named.

T1: GmWRP1 (Glycine max, UniProt I1MBG9 1-332)
T1 sequence: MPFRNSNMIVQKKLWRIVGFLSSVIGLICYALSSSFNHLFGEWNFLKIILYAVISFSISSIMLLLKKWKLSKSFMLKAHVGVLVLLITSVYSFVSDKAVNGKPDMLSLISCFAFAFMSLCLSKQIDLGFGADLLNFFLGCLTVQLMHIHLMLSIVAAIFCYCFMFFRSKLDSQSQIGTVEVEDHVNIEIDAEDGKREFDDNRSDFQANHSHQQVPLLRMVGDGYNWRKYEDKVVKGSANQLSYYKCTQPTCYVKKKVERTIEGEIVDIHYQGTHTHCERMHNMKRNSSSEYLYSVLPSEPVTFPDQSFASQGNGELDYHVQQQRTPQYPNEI

B1: Pchn0 (dsDNA)
DNA 1: GGAACTTGACCTTGACCTTAGGGCTGCAGGAATTCG
DNA 2: CGAATTCCTGCAGCCCTAAGGTCAAGGTCAAGTTCC
B2: mPchn0 (dsDNA)
DNA 1: B1 DNA 1 with C10A, C16A
DNA 2: B1 DNA 2 with G21T, G27T

Key:
AtWRKY33 = AtWRKY33 (Arabidopsis, UniProt Q8S8P5 1-519); assay: EMSA; not stated; EMSA as in Zheng et al., 2006; conditions: protein: recombinant; tags: His (pET32a); label: labelled by Klenow fill-in
GmWRP1 = target: T1, GmWRP1; assay: EMSA; not stated; EMSA as in Zheng et al., 2006; conditions: protein: recombinant; tags: His (pET32a); label: labelled by Klenow fill-in

AtWRKY33, sequence (Q8S8P5 whole entry): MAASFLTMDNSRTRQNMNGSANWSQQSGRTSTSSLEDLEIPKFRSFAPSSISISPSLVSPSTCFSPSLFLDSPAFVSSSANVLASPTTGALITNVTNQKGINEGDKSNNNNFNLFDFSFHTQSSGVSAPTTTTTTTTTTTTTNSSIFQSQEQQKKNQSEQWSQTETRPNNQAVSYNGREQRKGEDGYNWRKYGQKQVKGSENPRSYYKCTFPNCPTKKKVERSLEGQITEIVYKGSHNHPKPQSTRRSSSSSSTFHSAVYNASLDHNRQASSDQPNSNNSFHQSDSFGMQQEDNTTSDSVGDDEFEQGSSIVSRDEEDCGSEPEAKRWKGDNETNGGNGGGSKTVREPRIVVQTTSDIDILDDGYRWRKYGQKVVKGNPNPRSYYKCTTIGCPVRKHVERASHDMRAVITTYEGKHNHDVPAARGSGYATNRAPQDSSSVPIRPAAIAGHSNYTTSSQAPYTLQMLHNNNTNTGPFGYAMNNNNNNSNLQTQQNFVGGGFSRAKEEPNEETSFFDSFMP

| Binder | binding result (AtWRKY33) | binding result (GmWRP1) |
| --- | --- | --- |
| B1 | binds | no binding |
| B2 | no binding | no binding |
